From publication PMC9507969, “Visualizing maturation factor extraction from the nascent ribosome by the AAA-ATPase Drg1” (Nature Structural & Molecular Biology, 2022)
Changes are numbered by the printed parent chain. Numbers in names are those of the source.

B1: Bud20-TAP (natural protein, S. cerevisiae)
chain: MGRYSVKRYKTKRRTRDLDLIYNDLSTKESVQKLLNQPLDETKPGLGQHYCIHCAKYMETAIALKTHLKGKVHKRRVKELRGVPYTQEVSDAAAGYNLNKFLNRVQEITQSVGPEKESNEALLKEHLDSTLANVKTTEPTLPWAAADAEANTAAVTEAESTASAST
notes: Bud20 of S. cerevisiae; For cryo-EM the Protein A part of the tag was removed by TEV cleavage; source: expressed in S. cerevisiae crm1^T539C; bait of the pre-60S particle purification
B2: Rlp24 (ribosomal-like protein 24) on the pre-60S particle (natural protein)
chain: not shown
notes: Ribosomal-like protein 24 (Rlp24) of S. cerevisiae
B3: Drg1 (diazaborine resistance gene 1), wild type, purified (enzyme, S. cerevisiae)
chain: MAPKSSSSGSKKKSSASSNSADAKASKFKLPAEFITRPHPSKDHGKETCTAYIHPNVLSSLEINPGSFCTVGKIGENGILVIARAGDEEVHPVNVITLSTTIRSVGNLILGDRLELKKAQVQPPYATKVTVGSLQGYNILECMEEKVIQKLLDDSGVIMPGMIFQNLKTKAGDESIDVVITDASDDSLPDVSQLDLNMDDMYGGLDNLFYLSPPFIFRKGSTHITFSKETQANRKYNLPEPLSYAAVGGLDKEIESLKSAIEIPLHQPTLFSSFGVSPPRGILLHGPPGTGKTMLLRVVANTSNAHVLTINGPSIVSKYLGETEAALRDIFNEARKYQPSIIFIDEIDSIAPNRANDDSGEVESRVVATLLTLMDGMGAAGKVVVIAATNRPNSVDPALRRPGRFDQEVEIGIPDVDARFDILTKQFSRMSSDRHVLDSEAIKYIASKTHGYVGADLTALCRESVMKTIQRGLGTDANIDKFSLKVTLKDVESAMVDIRPSAMREIFLEMPKVYWSDIGGQEELKTKMKEMIQLPLEASETFARLGISAPKGVLLYGPPGCSKTLTAKALATESGINFLAVKGPEIFNKYVGESERAIREIFRKARSAAPSIIFFDEIDALSPDRDGSSTSAANHVLTSLLNEIDGVEELKGVVIVAATNRPDEIDAALLRPGRLDRHIYVGPPDVNARLEILKKCTKKFNTEESGVDLHELADRTEGYSGAEVVLLCQEAGLAAIMEDLDVAKVELRHFEKAFKGIARGITPEMLSYYEEFALRSGSSS
notes: Drg1 (AFG2), hexameric type-II AAA-ATPase of S. cerevisiae, wild type; Hexamer in the cryo-EM maps; also called DRG1 (AFG2); AAA-ATPase Drg1; source: overexpressed in yeast as GST fusion (CuSO4-induced), purified on GSH-agarose, eluted by Prescission protease cleavage
B4: Arx1 on the pre-60S particle (natural protein, UniProt Q03862 1-593, looked up)
chain: MALAISHEDTQILLKDKNILQESVLNKYRTAGQIAQTALKYVTSLINDSYHSKTTQRQLTVPELCLLTDSFILTRLEQYYKNKVNERGIAIPTTIDIDQISGGWCPEIDDTQNLLNWNKGKDSTFASSVTGTLRPGDLVKITLGVHIDGYTSEVSHTMVIYPVDETKPILQPTGPLLGGKADAVAAAHIAMETVVALLACALTPEKLPASLGGTSSGITGQLIRTIVDTIARSYNCGVVPGSRVRRIRRFLAGQNEGIVAEREYKGVVWTESHQEADLLSNTDAKDLTVVDRGQSTPFTNVSAIPSDDFVVQSGEVYLIDLKMASLEHCTKKGLVTLETVDSYTGKSHKAGELIARPGAYVRDFAQTHILKLKTSRQLLTKIDKQGVYPFKLSHLSSNFPFVHENEEELQSLKKDLKSFRLGMSEISNNYLCVESPIQIARWVPWDHILKATNPNGNLSYDATSTLTLPGHELPLPKLGVSAIKLKSLMNSTKESISLPVARECNTIVLCDSSVSTTDRPELLRLTGGSKTCQPSWIHSQHELNPQDSIVQGIFQLATLAKDKRFGLLLKETQPMKQKSVETSNGGVEETMKM
notes: Arx1 of S. cerevisiae, maturation factor at the exit of the polypeptide exit tunnel; source: endogenous, on pre-60S particles purified via Bud20-TAP from S. cerevisiae crm1^T539C after LmB treatment
B5: Nog1 on the pre-60S particle (natural protein, UniProt Q02892 1-647, looked up)
chain: MQLSWKDIPTVAPANDLLDIVLNRTQRKTPTVIRPGFKITRIRAFYMRKVKYTGEGFVEKFEDILKGFPNINDVHPFHRDLMDTLYEKNHYKISLAAISRAKSLVEQVARDYVRLLKFGQSLFQCKQLKRAALGRMATIVKKLRDPLAYLEQVRQHIGRLPSIDPNTRTLLICGYPNVGKSSFLRCITKSDVDVQPYAFTTKSLYVGHFDYKYLRFQAIDTPGILDRPTEEMNNIEMQSIYAIAHLRSCVLYFMDLSEQCGFTIEAQVKLFHSIKPLFANKSVMVVINKTDIIRPEDLDEERAQLLESVKEVPGVEIMTSSCQLEENVMEVRNKACEKLLASRIENKLKSQSRINNVLNKIHVAQPQARDDVKRTPFIPESVKNLKKYDPEDPNRRKLARDIEAENGGAGVFNVNLKDKYLLEDDEWKNDIMPEILDGKNVYDFLDPEIAAKLQALEEEEEKLENEGFYNSDDEEEIYDGFEASEVDDIKEKAAWIRNRQKTMIAEARNRKSLKNKAIMPRSKLTKSFGKMEEHMSTLGHDMSALQDKQNRAARKNRYVERGSDVVFGDQDALTASTENGVKLRQTDRLLDGVADGSMRSKADRMAKMERRERNRHAKQGESDRHNAVSLSKHLFSGKRGVGKTDFR
notes: Nog1 of S. cerevisiae; source: endogenous, on pre-60S particles purified from S. cerevisiae via Bud20-TAP (cryo-EM, blots) or Arx1-TAP (cross-linking)
B6: GST-Rlp24C RKK>E (R191E, K195E, K196E) (domain or fragment, S. cerevisiae, UniProt Q07915 146-199, looked up)
chain: AKEQERAESVSEQEESEEEEEDMEIDSDEEEEEQLEKQKILLKNRERNTEEIAF
notes: Rlp24 of S. cerevisiae, C domain aa 146-199 with three exchanges in the tail; In the ATPase assay the HIS6-tagged form of this variant was used
B7: GST-Rlp24C (Rlp24 C domain, aa 146-199) (domain or fragment, S. cerevisiae, UniProt Q07915 146-199, looked up)
chain: B6 chain with E46R, E50K, E51K
notes: Ribosomal-like protein 24 (Rlp24) of S. cerevisiae, C domain, aa 146-199; In the ATPase assays a HIS6-tagged Rlp24C made in E. coli was used instead of the GST fusion; source: purified

How the values were obtained:
[1] = target: B2; experiment: co-IP; affinity purification of pre-60S particles via Bud20-TAP from S. cerevisiae crm1^T539C (untreated, LmB and/or diazaborine; ARX1 or Δarx1 background), SDS-PAGE and western blotting; details: partners not purified
[2] = target: B5; experiment: cryo-EM structure; purified Drg1 (1.75 mg/ml, 12 µM) mixed 1:1 with 200 nM export-competent Bud20-TAP pre-60S particles, 2 mM ATPγS, 10 minutes; particle-bound Drg1 and free Drg1 hexamers picked from the same dataset; details: both partners purified
[3] = target: export-competent pre-60S particle purified via Bud20-TAP (S. cerevisiae (endogenous in the yeast …, UniProt Q08004 1-166; Q07915 1-199; Q03862 1-593; Q02892 1-647; P38861 1-518; P33201 …, Partial protein list of a heterogeneous ~2.1 MDa endogenous particle: members named in the text plus L2-A, L3 and L4-A from the PDB 7Z34 candidate entities. Tif6 is not named in the text and is inferr); experiment: SPR; Biacore X100; pre-60S particles captured through the Protein A moiety of Bud20-TAP on IgG immobilized on a CM3 chip; 25-150 nM Drg1 injected with 1 mM ATPγS; sigmoidal dose-response with variable slope on normalized RU; details: both partners purified
[4] = target: the molecule itself; experiment: cryo-EM structure; purified Drg1 (1.75 mg/ml, 12 µM) mixed 1:1 with 200 nM export-competent Bud20-TAP pre-60S particles, 2 mM ATPγS, 10 minutes; particle-bound Drg1 and free Drg1 hexamers picked from the same dataset
[5] = target: B3; experiment: as above; details: both partners purified
[6] = target: B3; experiment: cross-linking; pre-60S particles purified via Arx1-TAP from drg1-18 (TEV eluate) incubated with 150 µg purified Drg1 and 1 mM ATPγS, cross-linked with 1.5 mM DSS or BS3 (isotopically labeled), 30 minutes, 30 °C; LC-MS/MS, xQuest/xProphet; details: both partners purified
[7] = target: B3; experiment: pull-down; GST-tagged bait on GSH-agarose beads; 80 µg Drg1 in 120 µl binding buffer (20 mM HEPES-KOH, 150 mM potassium acetate, 5 mM magnesium acetate, 0.1% Tween-20, 1 mM DTT, pH 6.8); 1 mM ATP or ATPγS or no nucleotide; 60 minutes, room temperature; details: both partners purified
[8] = target: B3; experiment: SPR; Biacore X100; GST-Rlp24C amine-coupled on a CM5 chip, GST in the reference cell; 75-10,000 nM Drg1 injected with 1 mM ATPγS; 20 mM HEPES, 10 mM KCl, 2.5 mM MgCl2, 100 mM NaCl, 0.05% Tween-20, 1 mM DTT, pH 7.5; one-site binding hyperbola on normalized RU; details: both partners purified

B1
binding result [1]: binds

B2
binding result [2]: binds

B3
EC50 [3]: 0.046 µM
stoichiometry N [4]: 6

B4
binding result [5]: binds

B5
binding result [6]: binds

B6
binding result [7]: binds

B7
Kd [8]: 2.7 µM
